The test has as its target biotinylated HLA-A*0201-…. The test can be described thus: SPR; BIAcore T100, CM5 chip; A2-EAA on the chip, MEL5 injected (ten serial dilutions, 45 uL/min); KDs by equilibrium analysis in triplicate at 5, 10, 15, 20, 25 and 30°C, nonlinear van't Hoff fit with T0 = 298 K; 10 mM HEPES pH 7.4, 150 mM NaCl, 3 mM EDTA, 0.005% P20; HLA-A*0201-… as negative control surface. On the technique in general: SPR reads the build-up and loss of mass on a sensor chip optically.

MEL5 TCR showed a dH of -14 kcal/mol.

Source of the values: article PMC4357396.
